Patent US20200139362A1, “Proto-Antigen-Presenting Synthetic Surfaces, Activated T Cells, and Uses Thereof” (Berkeley Lights, Inc., priority 2018, published 2020)
Square brackets hold non-standard residues; d marks the D form. Ends that are not written are not given here.

Tests used:
[1] = biological target: T1, HLA-A*02:01 (Homo sapiens, UniProt P04439, D140Y/D185E/D98H/E176V/E277Q/G131W/G231S/I119V/I121R/I166T/I218V/L300P/L318F/N151K/N90K/P208A/P217A/Q86G/Q94H/R138H/R169H/T345S); assay: Peptide binding and stability of pMHC complexes under culture conditions (W6/32 antibody, flow cytometry); details: pMHC on Streptavidin DynaBeads in T Cell Culture Media at 37° C.; exponential decay fit of APC MFI
Protocol: To assess the stability of the pMHC Class I-peptide antigen complexes under the conditions that are used to culture T Cells, pMHC Class I complexes were first bound to beads. Biotinylated HLA-A*02:01 complexes loaded with either SLYSYFQKV (SEQ ID NO: 5) or SLLPIMwQLY (SEQ ID NO: 6) peptides were diluted to 0.83 micrograms/mL in Assay Buffer (PBS with 2 mM EDTA and 0.1% Bovine Serum Albumin). To 0.6 mL of the pMHC solutions in microcentrifuge tubes, 10^7 Streptavidin-coated DynaBeads (M-280, ThermoFisher) were added. The beads were mixed in the pMHC solution for 4 minutes at 2,000 rpm on a ThermoMixer (Eppendorf). The pMHC-beads were then captured on a magnetic rack, and the solution containing unbound pMHC removed by aspiration. 1 mL of Assay Buffer was added to the tubes, and then aspirated. The beads were then resuspended in 0.1 mL of Assay Buffer. The beads were then stored at 4° C. until use. […]
Antibody binding to the beads was then detected on a FACSCelesta with High-Throughput Sampler (BD Biosciences). […] Approximately 25,000 bead events were recorded for each sample. The Median Fluorescence Intensity (MFI) in the APC channel for the pHLA-beads in each sample was then recorded. […] The half-lives for the pHLA complexes were then calculated from the fitted decay constant.

[2] = biological target: T1, HLA-A*02:01; assay: Peptide switching (exchange) on peptide-HLA-A*02:01 complex, anti-DNP antibody flow cytometry; assay type: binding; details: 20 micromolar peptide, 1 micromolar HLA-A*02:01 with DNP-labelled initial peptide LMYAKRAFV, 1 mM Glycl-Methionine, room temperature 4 hours; relative to control peptide […] set as 100%
Protocol: To test binding of Immunogenic and Non-Immunogenic peptides to an MHC Class I complex, a peptide-HLA-A*02:01 complex with an initial peptide LMYAKRAFV (SEQ ID NO: 4) in the peptide binding groove was purchased. The initial peptide included a dinitrophenyl (DNP) moiety conjugated to the lysine at position 5. Two peptide antigens were then tested for their ability to bind to the MHC Class I complex: SLYSYFQKV (SEQ ID NO: 5) derived from SLC45A2 and SLLPIMwQLY (SEQ ID NO: 6) derived from TCL1. The peptides were resuspended in DMSO to 5 mg/mL. The peptides were then further diluted ten-fold in PBS. […]
Samples of unswitched peptide-MHC and switched peptide-MHC were then captured on Streptavidin-coated DynaBeads (ThermoFisher). […] The peptide-MHC beads were then stored at 4° C. until they were analyzed for peptide exchange.
To quantify peptide exchange, a FITC-conjugated anti-DNP antibody specific for the DNP-conjugated initial peptide was added to a sample of each captured peptide-MHC. […] The staining for pre-assembled peptide and intact pHLA complexes were detected by Flow Cytometry on a FACSCelesta with High-Throughput Sampler (BD Biosciences). […] Approximately 5,000 bead events were recorded for each sample. The Median Fluorescence Intensity (MFI) in the APC and FITC channels of each sample was then recorded. […]

Substance	half-life of peptide-HLA-A*02:01 complex [1]	percent peptide switching [2]
SLYSYFQKV (SLC45A2-derived peptide) [immunogenic peptide antigen derived from SLC45A2]	about 17 hours	about 99%
SLLPIMwQLY (SLLPIM[dW]QLY) [TCL1-derived peptide, non-immunogenic peptide antigen derived from TCL1]	about 0.5 hours	about 90%
